US20240181006A1, “POLYPEPTIDES BINDING ADAMTS5, MMP13 AND AGGRECAN” (Merck Patent GmbH, priority 2017, published 2024)
One block for each molecule: values may come before it.

How the values were obtained:
[1] = target: T1, human MMP14 (Homo sapiens, UniProt P50281); assay: human MMP14 fluorogenic peptide assay (selectivity of 62C02); assay type: biochemical; details: data not shown
Procedure: (§1) In brief, the setup of human, cynomolgus, rat, dog and bovine MMP13 fluorogenic peptide assays, as well as human MMP1 and MMP14 fluorogenic peptide assays is as follows. Activated MMP was incubated with fluorogenic peptide substrate Mca-PLGL-Dpa-AR-NH2 (R&D Systems #ES001) and a ⅕ dilution of periplasmic extract or a dilution series of purified Nanobody/positive control (total volume=20 μl in assay buffer 50 mM Tris pH 7.5, 100 mM NaCl, 10 mM CaCl2), 0.01% Tween20), for 2 h at 37° C. The linear increase of fluorescence (v0-between 15 and 45 min incubation) was used as a measure for the enzymatic activity and % inhibition was calculated with the formula 100-100 (v0 in the presence of test Nanobody/v0 in the presence of negative control Nanobody (Cablys)).
(§2) In order to determine the selectivity of ISVD 62C02 for MMP13, fluorogenic peptide assays for MMP1 and MMPP14 were used. MMP1 and MMP14 are two closely related MMP family members. TIMP-2 was used as positive control in these assays. A similar set up as described in Example 1.1 was used.

[2] = target: T2, human MMP1 (Homo sapiens, UniProt P03956); assay: human MMP1 fluorogenic peptide assay (selectivity of 62C02); assay type: biochemical; details: data not shown
T2 sequence (P03956 100-469): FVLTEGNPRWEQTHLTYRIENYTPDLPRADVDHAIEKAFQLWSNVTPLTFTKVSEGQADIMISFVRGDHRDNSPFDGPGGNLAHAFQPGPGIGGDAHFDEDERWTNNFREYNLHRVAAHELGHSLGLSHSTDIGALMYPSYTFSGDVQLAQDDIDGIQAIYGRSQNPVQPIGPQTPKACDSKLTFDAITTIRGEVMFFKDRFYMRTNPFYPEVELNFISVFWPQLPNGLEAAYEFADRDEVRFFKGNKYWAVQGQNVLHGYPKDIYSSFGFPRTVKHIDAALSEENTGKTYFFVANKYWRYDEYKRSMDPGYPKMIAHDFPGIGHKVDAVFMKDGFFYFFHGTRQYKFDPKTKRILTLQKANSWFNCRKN
Procedure: as §1, §2

[3] = system: Rat G1-IGD-G2; assay: periplasmic extract ELISA, rat Aggrecan G1-IGD-G2; assay type: binding
Rat G1-IGD-G2, sequence (P07897 20-684 limits assumed): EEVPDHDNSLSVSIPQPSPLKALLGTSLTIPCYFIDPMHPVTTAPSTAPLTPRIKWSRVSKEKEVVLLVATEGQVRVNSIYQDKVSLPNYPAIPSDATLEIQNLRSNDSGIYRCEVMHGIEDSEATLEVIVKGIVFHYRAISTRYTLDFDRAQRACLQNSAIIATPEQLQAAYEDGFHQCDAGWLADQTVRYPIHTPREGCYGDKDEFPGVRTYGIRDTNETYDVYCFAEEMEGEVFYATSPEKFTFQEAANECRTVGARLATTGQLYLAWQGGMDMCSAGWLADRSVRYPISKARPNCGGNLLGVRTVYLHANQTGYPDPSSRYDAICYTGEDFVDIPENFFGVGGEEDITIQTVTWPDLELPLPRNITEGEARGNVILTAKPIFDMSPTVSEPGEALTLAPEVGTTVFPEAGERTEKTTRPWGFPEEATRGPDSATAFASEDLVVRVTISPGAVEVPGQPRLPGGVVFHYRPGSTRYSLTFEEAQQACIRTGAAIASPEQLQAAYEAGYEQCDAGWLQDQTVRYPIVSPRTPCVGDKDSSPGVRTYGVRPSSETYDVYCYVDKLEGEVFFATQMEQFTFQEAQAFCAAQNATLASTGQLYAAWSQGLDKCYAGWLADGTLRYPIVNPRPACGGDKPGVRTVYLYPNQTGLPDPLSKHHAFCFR
Description: (§3) After the primary screening, initial assessment of binding via ELISA, determination of off-rate and species cross-reactivity, ISVD 114F08 was subjected to further characterization.

[4] = system: Cy G1-IGD-G2; assay: periplasmic extract ELISA, cynomolgus Aggrecan G1-IGD-G2; assay type: binding
Description: as §3

[5] = target: T3, Bov G1-IGD-G2 (Bos taurus, UniProt P13608); assay: periplasmic extract ELISA, bovine Aggrecan G1-IGD-G2; assay type: binding
T3 construct: the recombinant G1-IGD-G2 region from human, cynomolgus, rat, dog and bovine Aggrecan
T3 sequence (P13608 20-685 limits assumed): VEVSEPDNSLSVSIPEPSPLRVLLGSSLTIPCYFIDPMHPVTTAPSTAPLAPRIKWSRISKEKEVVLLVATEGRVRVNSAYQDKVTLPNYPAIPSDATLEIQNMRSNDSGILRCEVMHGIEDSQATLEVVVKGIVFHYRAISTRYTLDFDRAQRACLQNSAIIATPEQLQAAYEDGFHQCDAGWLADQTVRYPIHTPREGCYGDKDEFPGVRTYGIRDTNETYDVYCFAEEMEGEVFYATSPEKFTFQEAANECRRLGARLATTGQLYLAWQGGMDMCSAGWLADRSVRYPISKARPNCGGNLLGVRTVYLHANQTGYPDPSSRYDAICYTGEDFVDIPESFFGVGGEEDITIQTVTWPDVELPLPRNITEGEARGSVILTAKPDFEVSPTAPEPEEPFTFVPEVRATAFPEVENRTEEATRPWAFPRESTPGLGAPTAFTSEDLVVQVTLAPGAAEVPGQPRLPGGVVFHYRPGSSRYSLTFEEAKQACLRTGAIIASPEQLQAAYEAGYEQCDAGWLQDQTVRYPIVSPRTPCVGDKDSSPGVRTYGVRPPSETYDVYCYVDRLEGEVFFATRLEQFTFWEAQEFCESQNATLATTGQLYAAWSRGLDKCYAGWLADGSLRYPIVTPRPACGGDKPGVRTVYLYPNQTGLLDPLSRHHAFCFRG
Description: as §3

[6] = target: T4, Dog G1-IGD-G2 (Canis lupus familiaris, UniProt Q28343); assay: periplasmic extract ELISA, dog Aggrecan G1-IGD-G2; assay type: binding
T4 construct: Dog G1-IGD-G2
T4 sequence (Q28343 20-693): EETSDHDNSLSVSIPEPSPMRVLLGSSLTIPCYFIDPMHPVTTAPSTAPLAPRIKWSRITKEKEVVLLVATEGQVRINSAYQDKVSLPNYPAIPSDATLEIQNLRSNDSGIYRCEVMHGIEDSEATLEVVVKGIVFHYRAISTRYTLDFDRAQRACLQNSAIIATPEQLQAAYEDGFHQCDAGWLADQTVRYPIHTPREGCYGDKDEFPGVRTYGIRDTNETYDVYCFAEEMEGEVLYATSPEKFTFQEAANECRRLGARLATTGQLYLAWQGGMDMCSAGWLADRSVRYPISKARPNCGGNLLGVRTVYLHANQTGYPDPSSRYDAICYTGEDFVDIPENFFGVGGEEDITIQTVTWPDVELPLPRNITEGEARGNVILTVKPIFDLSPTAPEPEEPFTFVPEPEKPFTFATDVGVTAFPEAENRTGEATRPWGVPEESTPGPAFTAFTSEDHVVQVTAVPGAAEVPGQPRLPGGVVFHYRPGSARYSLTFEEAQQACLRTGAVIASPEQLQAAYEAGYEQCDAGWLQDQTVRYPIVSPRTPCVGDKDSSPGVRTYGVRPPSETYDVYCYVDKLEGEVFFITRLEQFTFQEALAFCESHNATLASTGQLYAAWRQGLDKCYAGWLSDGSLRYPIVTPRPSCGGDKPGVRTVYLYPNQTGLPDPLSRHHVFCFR
Description: as §3

[7] = target: T5, Hu G1-IGD-G2 (Homo sapiens, UniProt P16112); assay: periplasmic extract ELISA, human Aggrecan G1-IGD-G2; assay type: binding
T5 construct: Hu G1-IGD-G2
T5 sequence (P16112 20-676 limits assumed): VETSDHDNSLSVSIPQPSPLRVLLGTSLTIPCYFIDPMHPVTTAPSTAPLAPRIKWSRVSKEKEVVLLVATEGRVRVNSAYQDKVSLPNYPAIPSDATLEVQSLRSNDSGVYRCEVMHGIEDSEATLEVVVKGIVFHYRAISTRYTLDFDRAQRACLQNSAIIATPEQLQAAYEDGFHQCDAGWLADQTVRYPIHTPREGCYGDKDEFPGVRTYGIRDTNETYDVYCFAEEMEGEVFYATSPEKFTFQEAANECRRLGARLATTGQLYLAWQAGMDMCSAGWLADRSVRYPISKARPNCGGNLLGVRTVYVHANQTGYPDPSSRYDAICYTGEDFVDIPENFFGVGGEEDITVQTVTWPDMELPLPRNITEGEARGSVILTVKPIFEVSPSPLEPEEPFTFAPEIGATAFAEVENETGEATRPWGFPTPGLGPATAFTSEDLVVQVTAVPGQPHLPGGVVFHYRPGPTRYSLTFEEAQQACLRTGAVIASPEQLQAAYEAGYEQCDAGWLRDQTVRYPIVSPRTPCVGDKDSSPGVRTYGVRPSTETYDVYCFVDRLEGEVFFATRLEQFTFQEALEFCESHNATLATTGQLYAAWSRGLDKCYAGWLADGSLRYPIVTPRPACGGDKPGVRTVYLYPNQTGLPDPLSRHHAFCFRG
Description: as §3

[8] = target: T1, human MMP14; assay: FRET-based human MMP14 assay (selectivity of 02F03); assay type: biochemical; details: data not shown
Procedure: (§4) To confirm the selectivity of ISVD 02F03 for ADAMTS5, inhibition of the enzymatic activity of MMP1, MMP14 and ADAMTS4 was evaluated via FRET-based assays and a human ADAMTS4 AlphaLISA, with the respective enzymes.
(§5) Activated human MMP1 or MMP14 was incubated for 30 minutes at room temperature with 10 μl of dilution series of ISVD 02F03. After incubation, 20 μl of respectively 5 μM or 2.5 μM fluorogenic peptide substrate (Mca-PLGL-Dpa-AR-NH2 Fluorogenic MMP Substrate (R&D Systems cat #ES001)) was added. The ability of ISVD 02F03 to prevent MMP1- and MMP14-mediated cleavage was monitored every minute for 2 hours at 37° C. on a Tecan Infinite M1000 plate reader.

[9] = target: T2, human MMP1; assay: FRET-based human MMP1 assay (selectivity of 02F03); assay type: biochemical; details: data not shown
Procedure: as §4, §5

- MMP14 inhibition [1]: no MMP1 or MMP14 inhibition
- MMP1 inhibition [2]: no MMP1 or MMP14 inhibition
B1: ISVD 62C02: MMP13 specific immunoglobulin single variable domain (protein)
VHH: EVQLVESGGGVVQPGGSLRLSCAASGFAFSAAYMSWVRQAPGKGLEWVSSISDDGSKTYYADSVKGRFTISRDNSKNTVYLQMNSLRPEDTALYYCNTGYGATTTRPGRYWGQGTLVTVSS
modifications: Description of Artificial Sequence: Synthetic anti-MMP13 immunoglobulin single variable domain (ISVD)

- Periplasmic extract ELISA OD 450 nm, Bov G1-IGD-G2 [5]: 1.18
- Periplasmic extract ELISA OD 450 nm, Dog G1-IGD-G2 [6]: 1.90
- Periplasmic extract ELISA OD 450 nm, Hu G1-IGD-G2 [7]: 2.38
B2: ISVD 114F08: Aggrecan-specific immunoglobulin single variable domain (CAP), binds G1 domain (protein)
VHH: EVQLVESGGGVVQPGGSLRLSCAASGSTFIINVVRWYRRAPGKQRELVATISSGGNANYVDSVRGRFTISRDNSKNTVYLQMNSLRPEDTALYYCNVPTTHYGGVYYGPYWGQGTLVTVSS
modifications: Description of Artificial Sequence: Synthetic anti-Aggrecan immunoglobulin single variable domain (ISVD)
- Periplasmic extract ELISA OD 450 nm, Rat G1-IGD-G2 [3]: 2.05
- Periplasmic extract ELISA OD 450 nm, Cy G1-IGD-G2 [4]: 2.32

- inhibition of MMP14 activity [8]: inhibited
- inhibition of MMP1 activity [9]: inhibited
B3: TIMP3: natural inhibitor of MMP1 and MMP14 (protein)
chain: CTCSPSHPQDAFCNSDIVIRAKVVGKKLVKEGPFGTLVYTIKQMKMYRGFTKMPHVQYIHTEASESLCGLKLEVNKYQYLLTGRVYDGKMYTGLCNFVERWDQLTLSQRKGLNYRYHLGCNCKIKSCYYLPCFVTSKNECLWTDMLSNFGYPGYQSKHYACIRQKGGYCSWYRGWAPPDKSIINATDP
